# In US20180155451A1 (published 2018):
# Residue numbers refer to the chain shown, from its start. Numbers in names are those of the source.
# T1: FcγRIIb (human, UniProt P31994 43-217)
# T1 construct: extracellular domain; for crystallography expressed with Kifunesine and trimmed with Endo F1; also called FcgRIIb; FcgR2b; not shown: His tag attached to the C terminus
# T1 sequence (looked up): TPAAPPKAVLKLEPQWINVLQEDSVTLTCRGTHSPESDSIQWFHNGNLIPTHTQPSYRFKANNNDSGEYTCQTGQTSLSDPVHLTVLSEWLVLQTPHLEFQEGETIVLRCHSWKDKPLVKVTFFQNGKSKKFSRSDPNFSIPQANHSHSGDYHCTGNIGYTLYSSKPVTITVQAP
# T2: FcgRIIaR (human, UniProt P12318 34-217)
# T2 construct: extracellular domain; R131 allotype; also called FcγRIIa R; FcgRIIa type R; not shown: C-terminal His tag
# T2 sequence (looked up): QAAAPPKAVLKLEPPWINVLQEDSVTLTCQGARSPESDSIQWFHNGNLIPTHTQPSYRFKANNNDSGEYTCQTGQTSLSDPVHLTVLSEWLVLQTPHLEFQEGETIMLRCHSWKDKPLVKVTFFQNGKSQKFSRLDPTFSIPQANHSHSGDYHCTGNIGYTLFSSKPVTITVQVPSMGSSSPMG
# T3: FcgRIIaH (human, UniProt P12318 34-217)
# T3 construct: extracellular domain; H131 allotype; also called FcγRIIa H; FcgRIIa type H; not shown: C-terminal His tag
# T3 sequence (looked up): T2 sequence (looked up) with R134H
# T4: FcgRIIb (human, UniProt P31994 43-217)
# T4 construct: extracellular domain; also called FcγRIIb; CD32B; not shown: C-terminal His tag
# T4 sequence (looked up): T1 sequence (looked up)
# B1: H240-Kn120/H240-Hl068/L73-k0 (antibody, human IgG1, kappa)
# heavy 1: QDQLVQSGAEVKKPGASVKVSCKASGFNIKDTYIQWVRQAPGQGLEWMGRIDPLRKQTKYREKFEGRVTITADTSTNTAYMELSSLRSEDTAVYYCVRSGREFDYWGQGTLVTVSSASTKGPSVFPLAPSSKSTSGGTAALGCLVKDYFPEPVTVSWNSGALTSGVHTFPAVLQSSGLYSLSSVVTVPSSSLGTQTYICNVNHKPSNTKVDKKVEPKSCDKTHTCPPCPAPEYYWGPMVFLFPPKPKDTLMISRTPEVTCVVVDVSDEDPEVKFNWYVDGVEVHNAKTKPREEQYNATYRVVSVLTVLHQDWLNGKEYKCKVSNKDLPAPIEKTISKAKGQPREPQVCTLPPSRDELTKNQVSLWCLVKGFYPSDIAVEWESNGQPENNYKTTPPVLDSDGSFFLYSKLTVDKSRWQQGNVFSCSVMHEALHNHYTQKSLSLSP
# heavy 2: QDQLVQSGAEVKKPGASVKVSCKASGFNIKDTYIQWVRQAPGQGLEWMGRIDPLRKQTKYREKFEGRVTITADTSTNTAYMELSSLRSEDTAVYYCVRSGREFDYWGQGTLVTVSSASTKGPSVFPLAPSSKSTSGGTAALGCLVKDYFPEPVTVSWNSGALTSGVHTFPAVLQSSGLYSLSSVVTVPSSSLGTQTYICNVNHKPSNTKVDKKVEPKSCDKTHTCPPCPAPELLGGPSVFLFPPKPKDTLMISRTPEVTCVVVDVSHEEPEVKFNWYVDGVEVHNAKTKPREEQYNSTYRVVSVLTVLHQDWLNGKEYKCKVSNDALPKPIEETISKAKGQPREPQVYTLPPSRCELTKNQVSLSCAVKGFYPSDIAVEWESNGQPENNYKTTPPVLDSDGSFFLVSKLTVDKSRWQQGNVFSCSVMHEALHNHYTQKSLSLSP
# light: DIQMTQSPSSLSASVGDRVTITCRASQDIHKYIAWYQQKPGQAPRLLIQYTSTLQPGVPSRFSGSGSGTDYTFTISSLQPEDIATYYCLQYEQLRTFGGGTKVEIKRTVAAPSVFIFPPSDEQLKSGTASVVCLLNNFYPREAKVQWKVDNALQSGNSQESVTEQDSKDSTYSLSSTLTLSKADYEKHKVYACEVTHQGLSSPVTKSFNRGEC
# notes: S239M added to H240-Kn067
# B2: H240-Kn193/H240-Hl204/L73-k0 (antibody, human IgG1, kappa)
# heavy 1: B1 heavy 1 with Y234N, E293R
# heavy 2: B1 heavy 2 with G235T, I331E
# light: B1 light
# notes: Heterodimerized anti-epiregulin antibody
# B3: H240-Kn192/H240-Hl204/L73-k0 (antibody, human IgG1, kappa)
# heavy 1: B1 heavy 1 with Y234N, E293K
# heavy 2: B1 heavy 2 with G235T, I331E
# light: B1 light
# notes: as for B2
# B4: GpH7-A45/GpH7-B3/GpL16-k0 (antibody, human IgG1, kappa)
# heavy 1: QVQLVQSGAEVKKPGASVTVSCKASGYTFTDYEMHWIRQPPGEGLEWIGAIDPKTGDTAYSESFQDRVTLTADKSTSTAYMELSSLTSEDTAVYYCTRFYSYTYWGQGTLVTVSSASTKGPSVFPLAPSSKSTSGGTAALGCLVKDYFPEPVTVSWNSGALTSGVHTFPAVLQSSGLYSLSSVVTVPSSSLGTQTYICNVNHKPSNTKVDKKVEPKSCDKTHTCPPCPAPELLGAPSVFLFPPKPKDTLMISRTPEVTCVVVDVSHEDPEVKFNWYVDGVEVHNAKTKPREEQYNSTYRVVSVLTVLHQDWLNGKEYKCKVSNKALRAPIEKTISKAKGQPREPQVYTLPPSRKELTKNQVSLTCLVKGFYPSDIAVEWESNGQPENNYKTTPPVLDSDGSFFLYSKLTVDKSRWQQGNVFSCSVMHEALHNRYTQKSLSLSP
# heavy 2: not shown
# light: DIVMTQSPLSLPVTPGEPASISCQASESLVHSNRNTYLHWYLQKPGQSPQLLIYKVSNRFSGVPDRFSGSGSGTDFTLKISRVEAEDVGVYYCSQNTHVPPTFGQGTKVEIERTVAAPSVFIFPPSDEQLKSGTASVVCLLNNFYPREAKVQWKVDNALQSGNSQESVTEQDSKDSTYSLSSTLTLSKADYEKHKVYACEVTHQGLSSPVTKSFNRGEC
# notes: G237A and P329R in the same H chain
# B5: GpH7-TA7/GpH7-B78/GpL16-k0 (antibody, human IgG1, kappa)
# heavy 1: B4 heavy 1 with L232Y, G234W, A235G, S296A, R327P
# heavy 2: B4 heavy 1 with A235G, S237D, R327P, A328L, I330E, K354D, R433H, K437E
# light: B4 light
# notes: Heterodimerized anti-glypican-3 IgG1 antibody with two different H chains and a common L chain; also called TA7/B78
# Legend:
# FcγRIIb [1] = target: T1, FcγRIIb; test: SPR (Biacore), KD
# FcgRIIaR [2] = target: T2, FcgRIIaR; test: SPR (Biacore), antibody captured on chip, FcgR as analyte
# Description: (§1) The variants described above were assessed for their binding to FcγR according to the method described in Reference Example 8.
# (§2) Analysis of interaction between obj ective antibody and the FcγR was carried out using Biacore T100 (GE Healthcare), Biacore T200, Biacore A100, and Biacore 4000. HBS-EP+ (GE Healthcare) was used as the running buffer, and the measurement temperature was set to 25° C. Chips produced by immobilizing the antigen peptide by the amine coupling method to a Series S sensor Chip CM5 (GE Healthcare), chips produced by allowing preliminarily biotinylated antigen peptides to interact with and immobilize onto a Series S Sensor Chip SA (certified) (GE Healthcare), chips produced by immobilizing Protein L (ACTIGEN, BioVision) to Series S Sencor Chip CM5 (GE Healthcare), or chips produced by immobilizing Protein A/G (Thermo Scientific) to Series S Sencor Chip CM5 (GE Healthcare) were used. Antibodies of interest were captured onto these chips, and allowed to interact to each FcγR diluted with running buffer. To regenerate and repeatedly use the chip, the antibodies captured onto the chip were washed off by reacting 10 mM glycine-HCl, pH 1.5.
# FcgRIIaH [3] = target: T3, FcgRIIaH; test: as above
# Description: as §1, §2
# FcgRIIb [4] = target: T4, FcgRIIb; test: as above
# Description: as §1, §2
# FcgRIIIaF [5] = target: T5, FcgRIIIaF (human, UniProt P08637 17-208); test: as above
# T5 construct: extracellular domain; F158 allotype; also called FcγRIIIa F; not shown: C-terminal His tag
# T5 sequence (P08637 17-208): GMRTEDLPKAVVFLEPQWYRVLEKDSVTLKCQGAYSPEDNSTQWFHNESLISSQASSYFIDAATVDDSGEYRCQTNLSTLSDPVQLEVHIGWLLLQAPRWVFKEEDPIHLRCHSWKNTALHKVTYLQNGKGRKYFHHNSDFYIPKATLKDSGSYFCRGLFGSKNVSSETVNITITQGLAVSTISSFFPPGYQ
# Description: as §1, §2
# FcgRIIIaV [6] = target: T6, FcgRIIIaV (human, UniProt P08637 17-208); test: as above
# T6 construct: extracellular domain; V158 allotype; also called FcγRIIIa V; not shown: C-terminal His tag
# T6 sequence (P08637 17-208 F176V limits assumed): as the sequence (P08637 17-208) above, with F160V counted along it
# Description: as §1, §2
# FcgRIIaR [7] = target: T2, FcgRIIaR; test: SPR (Biacore); KD of H240-Kn120/H240-Hl068/L73-k0 divided by KD of the sample
# Description: as §1, §2
# FcgRIIaH [8] = target: T3, FcgRIIaH; test: as above
# Description: as §1, §2
# FcgRIIb [9] = target: T4, FcgRIIb; test: as above
# Description: as §1, §2
# FcgRIIIaF [10] = target: T5, FcgRIIIaF; test: as above
# Description: as §1, §2
# FcgRIIIaV [11] = target: T6, FcgRIIIaV; test: as above
# Description: as §1, §2
# FcgRIa = target: T7, FcgRIa (human, UniProt P12314 16-292); test: SPR (Biacore 4000), antibody captured on chip, FcgR as analyte; kd below the limit 5e-5 /s
# T7 construct: extracellular domain; also called FcγRIa; FcγRI; not shown: C-terminal His tag
# T7 sequence (P12314 16-292): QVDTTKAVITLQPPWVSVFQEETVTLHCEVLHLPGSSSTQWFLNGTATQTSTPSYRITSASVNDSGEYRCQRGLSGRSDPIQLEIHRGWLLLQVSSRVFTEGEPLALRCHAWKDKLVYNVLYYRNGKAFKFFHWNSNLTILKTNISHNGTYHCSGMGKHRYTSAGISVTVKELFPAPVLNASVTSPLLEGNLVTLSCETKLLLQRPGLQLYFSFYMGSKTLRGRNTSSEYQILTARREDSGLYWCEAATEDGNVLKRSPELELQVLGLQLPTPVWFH
# Description: as §1, §2
# FcγRIIb [12] = target: T1, FcγRIIb; test: SPR (Biacore), relative binding; compared with GpH7-A48/GpH7-B3/GpL16-k0
# Description: (§3) Analysis of interaction between objective antibody and the FcγR was carried out using Biacore T100 (GE Healthcare). HBS-EP+ (GE Healthcare) was used as the running buffer, and the measurement temperature was set to 25° C. Chips produced by immobilizing the antigen peptide by the amine coupling method to a Series S Sencor Chip CM5 (GE Healthcare), or alternatively, chips produced by allowing preliminarily biotinylated antigen peptides to interact with and immobilize onto a Series S Sensor Chip SA (certified) (GE Healthcare) were used. Antibodies of interest were captured onto an antigen peptide-immobilized chip, and allowed to interact to each FcγR diluted with running buffer. To regenerate and repeatedly use the chip, the antibodies captured on the chip were washed off by reacting 10 mM glycine-HCl, pH 1.5.
# FcγRIIIa [13] = target: T8, FcγRIIIa (human, UniProt P08637 17-208); test: SPR (Biacore T100); antibody captured on an antigen peptide chip, FcγRIIIa as analyte; 1:1 Langmuir kinetic fit
# T8 construct: extracellular domain; The protein is soluble, His-tagged, and was expressed in FreeStyle293 cells; also called FcgRIIIa; CD16A; not shown: His tag attached to the C terminus
# T8 sequence (P08637 17-208): as the sequence (P08637 17-208) above
# Description: (§4) Then, K334G was also assessed in the same manner. GpH7-TA40 (SEQ ID NO: 47) resulting from the introduction of K334G into GpH7-TA7 was constructed, and expressed and prepared in combination with GpH7-B78 according to the method described in Reference Example 1. Furthermore, GpH7-TA50 (SEQ ID NO: 48) resulting from the introduction of K334G into GpH7-B78 was constructed, and expressed and prepared in combination with GpH7-TA7 according to the method described in Reference Example 1. To assess the effect of combinations with K334G, the prepared antibodies were compared for the FcγRIIIa binding according to the method described in Reference Example 2 (Table 18).
# as §3
# FcγRIIIa [14] = target: T8, FcγRIIIa; test: SPR (Biacore); KD of GpH7-TA7/GpH7-B78/GpL16-k0 for FcγRIIIa divided by the KD of this antibody (the reference itself)
# Description: as §4
# as §3, with “To regenerate and repeatedly use the chip, the antibodies captured on the chip were washed off by reacting 10 mM glycine-HCl, pH 1.5.” left out
binder,measurement,setting,value
B1,fold increase of binding activity over native IgG1,FcγRIIb [1],~50 fold
B2,Kd,FcgRIIaR [2],16 nM
same,Kd,FcgRIIaH [3],35 nM
same,Kd,FcgRIIb [4],290 nM
same,Kd,FcgRIIIaF [5],11 nM
same,Kd,FcgRIIIaV [6],1.8 nM
same,Relative KD,FcgRIIaR [7],1.3
same,Relative KD,FcgRIIaH [8],1.2
same,Relative KD,FcgRIIb [9],0.5
same,Relative KD,FcgRIIIaF [10],0.2
same,Relative KD,FcgRIIIaV [11],0.2
same,Kd,FcgRIa,< 0.024 nM
B3,Kd,FcgRIIaR [2],19 nM
same,Kd,FcgRIIaH [3],42 nM
same,Kd,FcgRIIb [4],290 nM
same,Kd,FcgRIIIaF [5],12 nM
same,Kd,FcgRIIIaV [6],2.2 nM
same,Relative KD,FcgRIIaR [7],1.1
same,Relative KD,FcgRIIaH [8],1
same,Relative KD,FcgRIIb [9],0.5
same,Relative KD,FcgRIIIaF [10],0.2
same,Relative KD,FcgRIIIaV [11],0.2
same,Kd,FcgRIa,< 0.019 nM
B4,binding result,FcγRIIb [12],binds
B5,Kd,FcγRIIIa [13],4.1 nM
same,KD ratio,FcγRIIIa [14],1
